In publication PMC8498651 (Cell Reports, 2021):

What was measured:
[1] = molecular target: Recombinant SARS-CoV-2 RBD protein (E. coli) (SARS-CoV-2, UniProt P0DTC2); assay: BLI
[2] = molecular target: SARS-CoV RBD (SARS-CoV, strain , UniProt P59594); assay: BLI

B1: 2H04, anti-SARS-CoV-2 mAb (IgG) (antibody, V domains shown)
VH: EVQLQQSGAELVKPGASVKMSCKASGYTFTSYWITWVKQRPGQGLEWIGDIYPGSGSTKYNEKFRSEATLTVDTSSTTAYMQLSSLTSEDSAVYYCARWDFYGSRTFDYWGQGTTLTVSS
VL: DIVLTQSPAILSVSPGERVSFSCRASQNIGTIIHWYQQRTNGSPRLLIKYASESVSGIPSRFSGSGSGTDFTLSINSVESEDIADYYCQQSSSWPLTFGAGTKLEL
[1]
  Kd: 40.1 nM
  half-life of dissociation: 1.27 min

B2: 2B04, anti-SARS-CoV-2 mAb (IgG) (antibody, V domains shown)
VH: QVQLKQSGPGLVAPSQSLSITCTVSGFSLINYAISWVRQPPGKGLEWLGVIWTGGGTNYNSALKSRLSISKDNSKSQVFLKMNSLQTDDTARYYCARKDYYGRYYGMDYWGQGTSVTVS
VL: QAVVTQESALTTSPGETVTLTCRSSTGAVTTSNYANWVQEKPDHLFTGLIGGTNNRAPGVPARFSGSLIGDKAALTITGAQTEDEAIYFCALWYNNHWVFGGGTKLTVL
[2]
  binding result: no binding
[1]
  Kd: 1.05 nM
  half-life of dissociation: 23.7 min
